Source: US20240400689A1

Tests used:
[1] = molecular target: mouse CD276 protein (mouse) (UniProt Q8VE98); test: FACS on CHO-S-mCD276 cells
[2] = molecular target: T1, HUMAN B7H3 (Biacore analyte) (human) (UniProt Q5ZPR3); test: SPR, Biacore 8K, antibody captured, B7H3 as analyte, 1:1 binding
T1 sequence (looked up): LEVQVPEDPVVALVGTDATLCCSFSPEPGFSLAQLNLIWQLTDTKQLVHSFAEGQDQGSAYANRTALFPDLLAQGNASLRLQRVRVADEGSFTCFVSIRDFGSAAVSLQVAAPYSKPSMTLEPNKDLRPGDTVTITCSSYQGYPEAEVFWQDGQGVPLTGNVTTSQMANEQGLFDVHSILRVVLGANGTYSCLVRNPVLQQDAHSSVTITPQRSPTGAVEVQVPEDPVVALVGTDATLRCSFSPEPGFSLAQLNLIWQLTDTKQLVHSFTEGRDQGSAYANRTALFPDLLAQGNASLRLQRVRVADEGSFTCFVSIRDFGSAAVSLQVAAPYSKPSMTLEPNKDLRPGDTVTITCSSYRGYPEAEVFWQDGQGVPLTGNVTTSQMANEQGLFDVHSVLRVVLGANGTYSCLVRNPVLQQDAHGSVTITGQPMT

[3] = molecular target: human CD276 protein (human) (UniProt Q5ZPR3); test: cell-based or functional assay
[4] = molecular target: human CD276 protein (human) (UniProt Q5ZPR3); test: FACS on SKOV3 cells

Sequence of mouse CD276 protein (mouse) (Q8VE98 29-316): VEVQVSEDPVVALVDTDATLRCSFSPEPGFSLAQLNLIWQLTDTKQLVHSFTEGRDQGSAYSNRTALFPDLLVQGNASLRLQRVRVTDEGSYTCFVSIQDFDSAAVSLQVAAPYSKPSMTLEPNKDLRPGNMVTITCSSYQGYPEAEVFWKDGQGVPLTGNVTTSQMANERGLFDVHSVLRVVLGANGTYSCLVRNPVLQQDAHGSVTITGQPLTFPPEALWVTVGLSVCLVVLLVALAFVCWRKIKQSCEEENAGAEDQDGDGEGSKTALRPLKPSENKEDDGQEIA

B1: 10-B9-D10-A12 (antibody, V domains shown)
VH: EVQLQESGPELVRPGVSVKISCKGSGYTFTDYTMHWVKLSHAKSLEWIGVISTYYGNTNYNQKFKGKATLTVDKSSSTAYMELARLTSEDSAIYYCARASYGSGYGPYYWYFDVWGAGTTVTVSS
VL: DIQMTQSPASLFASVGETVTITCRASEKIYSYLAWYFQKQGKSPQFLVYNANALAEGVPSRFSGSGSGTQFSLKINSLQPEDFGTYYCQHHYGTPVTFGAGSKLELK
With B1 the FACS MFI [1] was 3170.

B2: Enoblituzumab (antibody, part only; not given: constant regions, V domains shown, not shown: another chain or arm of the molecule)
VH: EVQLVESGGGLVQPGGSLRLSCAASGFTFSSFGMHWVRQAPGKGLEWVAYISSDSSAIYYADTVKGRFTISRDNAKNSLYLQMNSLRDEDTAVYYCGRGRENIYYGSRLDYWGQGTTVTVSS
VL: DIQLTQSPSFLSASVGDRVTITCKASQNVDTNVAWYQQKPGKAPKALIYSASYRYSGVPSRFSGSGSGTDFTLTISSLQPEDFATYYCQQYNNYPFTFGQGTKLEIK
In the case of B2, the Kd [2] is reported as 3.8 nM, the koff [2] is reported as 0.000486 s⁻¹ and the kon [2] is reported as 128000 M⁻¹ s⁻¹. For the same binder, the EC50 of antibody induced ADCC effect on SKOV3 [3] was 0.0864 µg/mL, the EC50 of antibody induced CDC effect [3] was 7.28 nM and the Top cytotoxicity (%), CDC [3] was 80.1%. It also gave an EC50 [4] of 0.985 µg/mL and an MFI (Max) [4] of 830.
